This note sets out measurements from patent US20250387497A1, “MULTIVALENT MULTISPECIFIC CONJUGATES AND RELATED COMPOSITIONS AND METHODS OF USE” (Purdue Research Foundation, priority 2022, published 2025).

In one experiment the test system is MB49 cells. Briefly: Binding and internalization of P1/P2 peptides, anti-HA immunofluorescence, MB49 cells. The settings on record: mouse MB49 cells (LE and WT). It is filed as cell-based. How it is done: (§1) Arrows and arrowheads point to examples of internalized peptide in endosomal and late compartments, respectively.
After five minutes, internalized peptide was localized to peripheral early endosomes (arrowheads) and after 45 minutes accumulated in late endosomes/lysosomes (arrows).
FIGS. 3F-3G show the amount of cell-associated peptide as a function of time as estimated by quantitative microscopy (FIG. 3F) and as a function of dose by quantitative Western blot (FIG. 3G) with anti-HA antibodies (upper panel) followed by band densitometry of triplicates (lower panel).
(§2) The tested conjugates targeted bladder cancer cells and were internalized. See Coon et al. (2012), supra, for description of methodologies. See, e.g., FIGS. 3D and 3E. Given interspecies receptor conservation, the conjugates targeted cells of human, mouse and canine origin (FIG. 3D), and were internalized in GFP-Rab5-positive endosomes (see, e.g., FIG. 3D, mid-panel set) in a time-dependent manner (FIG. 3E).

The test system of the next experiment is T24 cells. Briefly: Binding and internalization of P1/P2 peptides, anti-HA immunofluorescence, T24 cells. Format: cell-based. The settings on record: human T24 cells.
Text: as §1, §2

In experiment [1] the test system is cells isolated from spontaneous dog tumors and immortalized. Briefly: Binding and internalization of P1/P2 peptides, anti-HA immunofluorescence, canine bladder tumor cells. Format: cell-based.
Text: as §1, §2

Another experiment relates to normal urothelium. Briefly: P2 binding/uptake in cultured normal urothelium cells, anti-HA immunostaining. Format: cell-based. The conditions noted are these: different P2 concentrations. How it is done: (§3) FIGS. 4A and 4B show images of immunostaining with an anti-HA antibody of normal (FIG. 4A) and MB49 wild type cancer (FIG. 4B) cells incubated with the highest concentration of P2 conjugates used.
(§4) Normal (labeled A) and MB49 wild type cancer (labeled B) cells isolated from bladder urothelium were disaggregated and cultured in vitro. Cultured cells were incubated with different concentrations of the P2 MV-MS conjugate and the presence of cell-bound peptide was investigated by immunostaining with an anti-HA antibody using the methodologies described in Example 1.

The subject of experiment [2] is MB49 wild type cancer cells. Briefly: P2 binding in cultured MB49 wild type cancer cells, anti-HA immunostaining. Format: cell-based, mouse. The conditions noted are these: MB49 wild type cancer cells versus normal urothelium cells. How it is done: as §3, §4

B1: FCGDGFYACYMDVGRAQGKAQGYHWYGYTPQNVIGQAKGQARGVSPPLTLGQLLSG KQAGRQAGKLAKLAKKLAKLAKGQRAGQKAG (peptide)
chain: FCGDGFYACYMDVGRAQGKAQGYHWYGYTPQNVIGQAKGQARGVSPPLTLGQLLSGKQAGRQAGKLAKLAKKLAKLAKGQRAGQKAG
modifications: HA tag; MV-MS conjugate; P2 conjugate sequence: H-E-F-I
Regarding B1, the “binding and internalization of peptide” value in the experiment with MB49 cells is “bound and internalized”; with T24 cells, “bound and internalized”; in experiment [1] it was “bound and internalized”. In addition, in the experiment on normal urothelium, the “binding or uptake to normal urothelium” value is reported as “no detectable binding or uptake”. In addition, in experiment [2], the “selectivity for cancer cells” value is on record as “marked selectivity for cancer cells”.

B2: YHWYGYTPQNVIGRAQGKAQGKLAKLAKKLAKLAKGQAKGQARGFCGDGFYACY MDVGKQAGRQAGVSPPLTLGQLLSGQRAGQKAG (peptide)
chain: YHWYGYTPQNVIGRAQGKAQGKLAKLAKKLAKLAKGQAKGQARGFCGDGFYACYMDVGKQAGRQAGVSPPLTLGQLLSGQRAGQKAG
modifications: HA tag; MV-MS conjugate; P1 conjugate sequence: E-I-H-F
For B2, the “binding and internalization of peptide” value is “bound and internalized” with MB49 cells; “bound and internalized” with T24 cells; “bound and internalized” in experiment [1].
